Source: patent publication US20240261333A1, “NOVEL TARGETS FOR ENHANCING ANTI-TUMOR IMMUNITY” (THE BROAD INSTITUTE, INC., priority 2021, published 2024)

T1: B3GNT2 (Homo sapiens, UniProt Q9NY97)
T1 construct: The respective ORFs of candidate genes [CD274 (NM_014143), MCL1 (NM_021960), JUNB (NM_002229), and B3GNT2 (NM_006577)] were synthesized; expressed in transfected cells; host or cells: A375 melanoma cells (lentiviral ORF overexpression)
T1 sequence (Q9NY97 1-397): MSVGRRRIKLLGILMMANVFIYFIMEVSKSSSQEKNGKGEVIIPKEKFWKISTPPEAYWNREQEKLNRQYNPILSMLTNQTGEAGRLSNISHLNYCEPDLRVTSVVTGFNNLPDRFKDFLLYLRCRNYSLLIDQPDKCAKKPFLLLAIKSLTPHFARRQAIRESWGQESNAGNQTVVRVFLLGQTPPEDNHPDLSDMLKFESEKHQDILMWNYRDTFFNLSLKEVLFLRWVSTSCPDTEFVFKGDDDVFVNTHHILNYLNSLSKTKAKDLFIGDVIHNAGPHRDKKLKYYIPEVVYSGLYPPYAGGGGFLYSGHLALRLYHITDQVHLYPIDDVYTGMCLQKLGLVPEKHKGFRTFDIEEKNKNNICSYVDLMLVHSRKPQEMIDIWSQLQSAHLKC


Target: T1, B3GNT2
Assay: Co-IP of FLAG-tagged B3GNT2 followed by mass spectrometry
Assay type: cell-based
Design: C-term IgG / C-term flag: unit not given here
Summary of the method: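 FLAG-tagged B3GNT2 immunoprecipitated from cell lysate (HEPES, 1% Triton X-100, 150 mM NaCl) with anti-FLAG versus […], overnight at 4° C, then captured on Protein A/G magnetic beads for 4 h. Two biological replicates per condition. Peptides fractionated and analyzed by nano-LC on an Orbitrap Elite in data-dependent mode.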

[1] = Co-IP followed by mass spectrometry of B3GNT2, C-term tag, FLAG pull-down
[2] = Co-IP followed by mass spectrometry of B3GNT2, C-term tag, IgG pull-down
[3] = Co-IP followed by mass spectrometry of B3GNT2, N-term tag, FLAG pull-down
[4] = Co-IP followed by mass spectrometry of B3GNT2, N-term tag, IgG pull-down

Molecule	C-term flag [1]	C-term IgG [2]	N-term FLAG [3]	N-term IgG [4]	C-term flag (Co-IP with FLAG antibody, C-terminally FLAG-tagged B3GNT2, mass spectrometry count, unit not given)	N-term FLAG (Co-IP with FLAG antibody, N-terminally FLAG-tagged B3GNT2, mass spectrometry count, unit not given)	C-term IgG (Co-IP with IgG control antibody, C-terminally FLAG-tagged B3GNT2, mass spectrometry count, unit not given)	N-term IgG (Co-IP with IgG control antibody, N-terminally FLAG-tagged B3GNT2, mass spectrometry count, unit not given)
S100A7 (protein) SNTQAERSIIGMIDMFHKYTRRDDKIEKPSLLTMMKENFPNFLSACDKKGTNYLADVFEKKDKNEDKKIDFSEFLSLLGDIATDYHKQSHGAAPCSGGSQ	5	3	3	2	–	–	–	–
EMILIN1 (protein) ASYPPRGFSLYTGSSGALSPGGPQAQIAPRPASRHRNWCAYVVTRTVSCVLEDGVETYVKYQPCAWGQPQCPQSIMYRRFLRPRYRVAYKTVTDMEWRCCQGYGGDDCAESPAPALGPASSTPRPLARPARPNLSGSSAGSPLSGLGGEGPGESEKVQQLEEQVQSLTKELQGLRGVLQGLSGRLAEDVQRAVETAFNGRQQPADAAARPGVHETLNEIQHQLQLLDTRVSTHDQELGHLNNHHGGSSSSGGSRAPAPASAPPGPSEELLRQLEQRLQESCSVCLAGLDGFRRQQQEDRERLRAMEKLLASVEERQRHLAGLAVGRRPPQECCSPELGRRLAELERRLDVVAGSVTVLSGRRGTELGGAAGQGGHPPGYTSLASRLSRLEDRFNSTLGPSEEQEESWPGAPGGLSHWLPAARGRLEQLGGLLANVSGELGGRLDLLEEQVAGAMQACGQLCSGAPGEQDSQVSEILSALERRVLDSEGQLRLVGSGLHTVEAAGEARQATLEGLQEVVGRLQDRVDAQDETAAEFTLRLNLTAARLGQLEGLLQAHGDEGCGACGGVQEELGRLRDGVERCSCPLLPPRGPGAGPGVGGPSRGPLDGFSVFGGSSGSALQALQGELSEVILSFSSLNDSLNELQTTVEGQGADLADLGATKDRIISEINRLQQEATEHATESEERFRGLEEGQAQAGQCPSLEGRLGRLEGVCERLDTVAGGLQGLREGLSRHVAGLWAGLRETNTTSQMQAALLEKLVGGQAGLGRRLGALNSSLQLLEDRLHQLSLKDLTGPAGEAGPPGPPGLQGPPGPAGPPGSPGKDGQEGPIGPPGPQGEQGVEGAPAAPVPQVAFSAALSLPRSEPGTVPFDRVLLNDGGYYDPETGVFTAPLAGRYLLSAVLTGHRHEKVEAVLSRSNQGVARVDSGGYEPEGLENKPVAESQPSPGTLGVFSLILPLQAGDTVCVDLVMGQLAHSEEPLTIFSGALLYGDPELEHA	3	0	2	0	–	–	–	–
HNRNPM (protein) AAGVEAAAEVAATEIKMEEESGAPGVPSGNGAPGPKGEGERPAQNEKRKEKNIKRGGNRFEPYANPTKRYRAFITNIPFDVKWQSLKDLVKEKVGEVTYVELLMDAEGKSRGCAVVEFKMEESMKKAAEVLNKHSLSGRPLKVKEDPDGEHARRAMQKVMATTGGMGMGPGGPGMITIPPSILNNPNIPNEIIHALQAGRLGSTVFVANLDYKVGWKKLKEVFSMAGVVVRADILEDKDGKSRGIGTVTFEQSIEAVQAISMFNGQLLFDRPMHVKMDERALPKGDFFPPERPQQLPHGLGGIGMGLGPGGQPIDANHLNKGIGMGNIGPAGMGMEGIGFGINKMGGMEGPFGGGMENMGRFGSGMNMGRINEILSNALKRGEIIAKQGGGGGGGSVPGIERMGPGIDRLGGAGMERMGAGLGHGMDRVGSEIERMGLVMDRMGSVERMGSGIERMGPLGLDHMASSIERMGQTMERIGSGVERMGAGMGFGLERMAAPIDRVGQTIERMGSGVERMGPAIERMGLSMERMVPAGMGAGLERMGPVMDRMATGLERMGANNLERMGLERMGANSLERMGLERMGANSLERMGPAMGPALGAGIERMGLAMGGGGGASFDRAIEMERGNFGGSFAGSFGGAGGHAPGVARKACQIFVRNLPFDFTWKMLKDKFNECGHVLYADIKMENGKSKGCGVVKFESPEVAERACRMMNGMKLSGREIDVRIDRNA	8	5	6	5	–	–	–	–

The next lines start with the values.

C-term flag [1]	C-term IgG [2]	N-term FLAG [3]	N-term IgG [4]	C-term flag (Co-IP with FLAG antibody, C-terminally FLAG-tagged B3GNT2, mass spectrometry count, unit not given)	N-term FLAG (Co-IP with FLAG antibody, N-terminally FLAG-tagged B3GNT2, mass spectrometry count, unit not given)	C-term IgG (Co-IP with IgG control antibody, C-terminally FLAG-tagged B3GNT2, mass spectrometry count, unit not given)	N-term IgG (Co-IP with IgG control antibody, N-terminally FLAG-tagged B3GNT2, mass spectrometry count, unit not given)	Molecule
–	–	–	–	7	29	0	0	PHGDH (protein) AFANLRKVLISDSLDPCCRKILQDGGLQVVEKQNLSKEELIAELQDCEGLIVRSATKVTADVINAAEKLQVVGRAGTGVDNVDLEAATRKGILVMNTPNGNSLSAAELTCGMIMCLARQIPQATASMKDGKWERKKFMGTELNGKTLGILGLGRIGREVATRMQSFGMKTIGYDPIISPEVSASFGVQQLPLEEIWPLCDFITVHTPLLPSTTGLLNDNTFAQCKKGVRVVNCARGGIVDEGALLRALQSGQCAGAALDVFTEEPPRDRALVDHENVISCPHLGASTKEAQSRCGEEIAVQFVDMVKGKSLTGVVNAQALTSAFSPHTKPWIGLAEALGTLMRAWAGSPKGTIQVITQGTSLKNAGNCLSPAVIVGLLKEASKQADVNLVNAKLLVKEAGLNVTTSHSPAAPGEQGFGECLLAVALAGAPYQAVGLVQGTTPVLQGLNGAVFRPEVPLRRDLPLLLFRTQTSDPAMLPTMIGLLAEAGVRLLSYQTSLVSDGETWHVMGISSLLPSLEAWKQHVTEAFQFHF
4	2	5	4	–	–	–	–	YTHDF2 (protein) SASSLLEQRPKGQGNKVQNGSVHQKDGLNDDDFEPYLSPQARPNNAYTAMSDSYLPSYYSPSIGFSYSLGEAAWSTGGDTAMPYLTSYGQLSNGEPHFLPDAMFGQPGALGSTPFLGQHGFNFFPSGIDFSAWGNNSSQGQSTQSSGYSSNYAYAPSSLGGAMIDGQSAFANETLNKAPGMNTIDQGMAALKLGSTEVASNVPKVVGSAVGSGSITSNIVASNSLPPATIAPPKPASWADIASKPAKQQPKLKTKNGIAGSSLPPPPIKHNMDIGTWDNKGPVAKAPSQALVQNIGQPTQGSPQPVGQQANNSPPVAQASVGQQTQPLPPPPPQPAQLSVQQQAAQPTRWVAPRNRGSGFGHNGVDGNGVGQSQAGSGSTPSEPHPVLEKLRSINNYNPKDFDWNLKHGRVFIIKSYSEDDIHRSIKYNIWCSTEHGNKRLDAAYRSMNGKGPVYLLFSVNGSGHFCGVAEMKSAVDYNTCAGVWSQDKWKGRFDVRWIFVKDVPNSQLRHIRLENNENKPVTNSRDTQEVPLEKAKQVLKIIASYKHTTSIFDDFSHYEKRQEEEESVKKERQGRGK
3	0	2	0	–	–	–	–	PPFIBP1 (protein) MMSDASDMLAAALEQMDGIIAGSKALEYSNGIFDCQSPTSPFMGSLRALHLVEDLRGLLEMMETDEKEGLRCQIPDSTAETLVEWLQSQMTNGHLPGNGDVYQERLARLENDKESLVLQVSVLTDQVEAQGEKIRDLEFCLEEHREKVNATEEMLQQELLSRTSLETQKLDLMAEISNLKLKLTAVEKDRLDYEDKFRDTEGLIQEINDLRLKVSEMDSERLQYEKKLKSTKDELASLKEQLEEKESEVKRLQEKLVCKMKGEGVEIVDRDIEVQKMKKAVESLMAANEEKDRKIEDLRQCLNRYKKMQDTVVLAQGKDGEYEELLNSSSISSLLDAQGFSDLEKSPSPTPVMGSPSCDPFNTSVPEEFHTTILQVSIPSLLPATVSMETSEKSKLTPKPETSFEENDGNIILGATVDTQLCDKLLTSSLQKSSSLGNLKKETSDGEKETIQKTSEDRAPAESRPFGTLPPRPPGQDTSMDDNPFGTRKVRSSFGRGFFKIKSNKRTASAPNLAETEKETAEHLDLAGASSRPKDSQRNSPFQIPPPSPDSKKKSRGIMKLFGKLRRSQSTTFNPDDMSEPEFKRGGTRATAGPRLGWSRDLGQSNSDLDMPFAKWTKEQVCNWLMEQGLGSYLNSGKHWIASGQTLLQASQQDLEKELGIKHSLHRKKLQLALQALGSEEETNHGKLDFNWVTRWLDDIGLPQYKTQFDEGRVDGRMLHYMTVDDLLSLKVVSVLHHLSIKRAIQVLRINNFEPNCLRRRPSDENTIAPSEVQKWTNHRVMEWLRSVDLAEYAPNLRGSGVHGGLMVLEPRFNVETMAQLLNIPPNKTLLRRHLATHFNLLIGAEAQHQKRDAMELPDYVLLTATAKVKPKKLAFSNFGNLRKKKQEDGEEYVCPMELGQASGSASKKGFKPGLDMRLYEEDDLDRLEQMEDSEGTVRQIGAFSEGINNLTHMLKEDDMFKDFAARSPSASITDEDSNV
3	0	2	0	–	–	–	–	TELO2 (protein) MEPAPSEVRLAVREAIHALSSSEDGGHIFCTLESLKRYLGEMEPPALPREKEEFASAHFSPVLRCLASRLSPAWLELLPHGRLEELWASFFLEGPADQAFLVLMETIEGAAGPSFRLMKMARLLARFLREGRLAVLMEAQCRQQTQPGFILLRETLLGKVVALPDHLGNRLQQENLAEFFPQNYFRLLGEEVVRVLQAVVDSLQGGLDSSVSFVSQVLGKACVHGRQQEILGVLVPRLAALTQGSYLHQRVCWRLVEQVPDRAMEAVLTGLVEAALGPEVLSRLLGNLVVKNKKAQFVMTQKLLFLQSRLTTPMLQSLLGHLAMDSQRRPLLLQVLKELLETWGSSSAIRHTPLPQQRHVSKAVLICLAQLGEPELRDSRDELLASMMAGVKCRLDSSLPPVRRLGMIVAEVVSARIHPEGPPLKFQYEEDELSLELLALASPQPAGDGASEAGTSLVPATAEPPAETPAEIVDGGVPQAQLAGSDSDLDSDDEFVPYDMSGDRELKSSKAPAYVRDCVEALTTSEDIERWEAALRALEGLVYRSPTATREVSVELAKVLLHLEEKTCVVGFAGLRQRALVAVTVTDPAPVADYLTSQFYALNYSLRQRMDILDVLTLAAQELSRPGCLGRTPQPGSPSPNTPCLPEAAVSQPGSAVASDWRVVVEERIRSKTQRLSKGGPRQGPAGSPSRFNSVAGHFFFPLLQRFDRPLVTFDLLGEDQLVLGRLAHTLGALMCLAVNTTVAVAMGKALLEFVWALRFHIDAYVRQGLLSAVSSVLLSLPAARLLEDLMDELLEARSWLADVAEKDPDEDCRTLALRALLLLQRLKNRLLPPASP
